Fewer inactive variants are shown than the library holds.

First the molecules themselves.
B1: TPR 5TU (parent)
chain: GGAUCUUCUCGAUCUAACAAAAAAGACAAAUCUGCCACAAAGCUUGAGAGCAUCUUCGGAUGCAGAGGCGGCAGCCUUCGGUGGCGCGAUAGCGCCAACGUUCUCAACUAUGACACGCAAAACGCGUGCUCCGUUGAAUGGAGUUUAUCAUG

The variants in this data set derive from B1. As to the kind of experiment: polymerase ribozyme fitness, log enrichment relative to wild type (log ratio); higher = more active; in vitro selection for triplet polymerase activity. An outline of the steps:
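A heterodimeric triplet polymerase ribozyme had each of its subunits mutagenized by PCR into a library, which was transcribed. One round of in vitro selection, done in triplicate, annealed each library with a biotinylated primer, its partner subunit and triplets, then incubated it frozen at −7 °C before gel excision of extended constructs, streptavidin-bead capture and RT-PCR. Fitness is the logarithm of genotype enrichment relative to wild-type enrichment, based on Illumina sequencing of inputs and outputs and inverse-variance-weighted replicate averages. A base-2 logarithm is used, and genotypes were kept only with ≥10 input reads and ≥1 read per output.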
Regarding G67A, the “polymerase ribozyme fitness (log ratio)” value was -3.22.
For G70A A91U C123U A138C C149U the value was at most -4.2.
As for C36U A52G C69U C85U U109G C118A, the “polymerase ribozyme fitness (log ratio)” value is -3.73.
In the case of A16U A41G A47C C76G G88C G94C A110C U134A G140A G141C A147C, the “polymerase ribozyme fitness (log ratio)” value is at most -4.2.
For G34A U111C A113C G124U G152U the value was at most -4.2; for A26G A49G C57U G59A C72A, at most -4.2; for G71C A91U C93U U104G, at most -4.2.
Next, U61A A73G: -1.42.
For A26C C35U U44A C57U G58U C85A the value was at most -4.2.
Regarding U6A A26C A98U G136U, the “polymerase ribozyme fitness (log ratio)” value was -4.09.
For A49G A142C the value was -1.59; for U13G A26U C96G A120G, at most -4.2.
Next, A22G U31C U44A C95G A150G: at most -4.2; G80U C105U G136U: -1.49; A21G A106C: -0.348.
Next, G92A U148C: -4.02; U56G C85A C95A: -1.74; C69A C72U: -3.05.
As for G11C U31C G59C C76A G84U U104A A107U, the “polymerase ribozyme fitness (log ratio)” value is at most -4.2.
Regarding A49U C93U, the “polymerase ribozyme fitness (log ratio)” value was -1.38.
For A39G A60C G67U C99G G143C the value was at most -4.2; for A40C G70A, -2.97.
For C18U C38G A40G U61A G81C C96A U146C the value was at most -4.2; for C57U C93U A115C A142C A147U, at most -4.2.
As to U61A C85A G141C, the “polymerase ribozyme fitness (log ratio)” value is -2.36.
For A41C A49C G50U C51A G92C A106G the value was at most -4.2; for A28C A30U G86A, at most -4.2; for C10U C93A, -3.86.
With A22U C123G, the “polymerase ribozyme fitness (log ratio)” value was -0.0344.
Next, U56A A150C: -3.35; A17G U53A C75G A91G A113G G143A: at most -4.2; A21G A24U C93G: -4.02.
For C36U G71A G94A the value was at most -4.2; for U13A G34U G94A U102G, at most -4.2.
Next, C8A C14U A21C U53A G83A A150C: at most -4.2; A21G C76G A97U: at most -4.2; C36U A52G G70U G84A: -2.84.
In the case of C14A A23C A66U C93A G128U U151A, the “polymerase ribozyme fitness (log ratio)” value is at most -4.2.
For A17C A40G C54A G83A G124A the value was at most -4.2.
Next, U45G C87U U139A: at most -4.2; C8G C18G C57G G83U C118U G128A: at most -4.2; C5U C38U C63A U77A C95U U127G G136U U144C: at most -4.2.
For A17C C57U U82C the value was -0.0541; for G50A G84A C95G U146C, -0.861.
For the variant A40U G68A C116A A137U, the “polymerase ribozyme fitness (log ratio)” value was at most -4.2.
Next, A37G U56A G84A C85U G133C: -4.13; A12C A41C C54U G94U A121G G140C: at most -4.2.
For A40C C96U U144G U151G the value was -3.73; for G74A U145A, -3.36.
Regarding A52G C87U G141A U148A, the “polymerase ribozyme fitness (log ratio)” value was at most -4.2.
In the case of C51G C57U G67C C87G A91G, the “polymerase ribozyme fitness (log ratio)” value was at most -4.2.
Next, C35U G58C G71A C93G: -3.09.
Next, U4C U55A: -0.767; A41U C93A A122G: -4.19; U15A A21C A73G C95U U135G A138G U139C: at most -4.2.
For the variant G70A A110G A142G, the “polymerase ribozyme fitness (log ratio)” value was -4.14.
For C10U C51G A52U C87A C123U G141C the value was at most -4.2.
For the variant U53A U146G, the “polymerase ribozyme fitness (log ratio)” value is -2.38.
Next, C75U G94C A122G U145A: -3.35.
Next, C35U G141A: 0.194.
Take A30G A121U: the “polymerase ribozyme fitness (log ratio)” value is -3.39.
For C14U A21G A49G the value was -2.56; for U6G C10A A16G A20C U53A C54G A64U C85U G86A A113U U145C, at most -4.2; for C93A G124C U127C G133C U135A U148G, at most -4.2.
For A41C U56A C87U the value was -1.41; for C10G C18G G42U A49C G50A G74A G133C G143A, at most -4.2; for C32A C87U, -3.44.
For U7A U44A, the “polymerase ribozyme fitness (log ratio)” value was at most -4.2.
Next, U55G G81A G141C U146G: -2.62; U45G A115G: -1.98; U13G G83U C105U G117C U148A: at most -4.2.
Next, U31A U55A A97U U145G: -0.219; C69U A73G G83C: -3.38.
For A30U C95G the value was -3.94; for A28C C69U, at most -4.2; for A22G G83A A91U G100U, at most -4.2.
Consider C105G A107U U148C, for which the “polymerase ribozyme fitness (log ratio)” value was at most -4.2.
In the case of G59U C69G G88C C125A, the “polymerase ribozyme fitness (log ratio)” value was at most -4.2.
Next, U13C U44A U55A G59U G84A A150C: at most -4.2; C54U G86U C93A A97U A120G: -1.29.
Next, G68A U77A G81A U111A G126U: at most -4.2; G42A G59A A66C A73U U78A C87G U146G C149A: at most -4.2; G59U A97C C99G: -3.18.

The values above are taken from the RNAGym collection of RNA variant scans (doi:10.1073/pnas.2313332121).
